Measured values from patent US20030113320A1 (BURNHAM INSTITUTE, published 2003).
Where no end group is shown, it is not given here.

Experiments:
[1] = target: T1, CD13/aminopeptidase N on CD13-transfected cells (Molt-4/CD13, MDA-MB-435/CD13) (Homo sapiens (Human), UniProt P15144 2-967); experiment: competition with CNGRC phage on CD13-transfected cells; peptide at 250 and 500 ug/ml
T1 construct: The parental lines express no endogenous CD13; The transfected construct is not described; also called CD13/APN
T1 sequence (P15144 2-967 R86Q limits assumed): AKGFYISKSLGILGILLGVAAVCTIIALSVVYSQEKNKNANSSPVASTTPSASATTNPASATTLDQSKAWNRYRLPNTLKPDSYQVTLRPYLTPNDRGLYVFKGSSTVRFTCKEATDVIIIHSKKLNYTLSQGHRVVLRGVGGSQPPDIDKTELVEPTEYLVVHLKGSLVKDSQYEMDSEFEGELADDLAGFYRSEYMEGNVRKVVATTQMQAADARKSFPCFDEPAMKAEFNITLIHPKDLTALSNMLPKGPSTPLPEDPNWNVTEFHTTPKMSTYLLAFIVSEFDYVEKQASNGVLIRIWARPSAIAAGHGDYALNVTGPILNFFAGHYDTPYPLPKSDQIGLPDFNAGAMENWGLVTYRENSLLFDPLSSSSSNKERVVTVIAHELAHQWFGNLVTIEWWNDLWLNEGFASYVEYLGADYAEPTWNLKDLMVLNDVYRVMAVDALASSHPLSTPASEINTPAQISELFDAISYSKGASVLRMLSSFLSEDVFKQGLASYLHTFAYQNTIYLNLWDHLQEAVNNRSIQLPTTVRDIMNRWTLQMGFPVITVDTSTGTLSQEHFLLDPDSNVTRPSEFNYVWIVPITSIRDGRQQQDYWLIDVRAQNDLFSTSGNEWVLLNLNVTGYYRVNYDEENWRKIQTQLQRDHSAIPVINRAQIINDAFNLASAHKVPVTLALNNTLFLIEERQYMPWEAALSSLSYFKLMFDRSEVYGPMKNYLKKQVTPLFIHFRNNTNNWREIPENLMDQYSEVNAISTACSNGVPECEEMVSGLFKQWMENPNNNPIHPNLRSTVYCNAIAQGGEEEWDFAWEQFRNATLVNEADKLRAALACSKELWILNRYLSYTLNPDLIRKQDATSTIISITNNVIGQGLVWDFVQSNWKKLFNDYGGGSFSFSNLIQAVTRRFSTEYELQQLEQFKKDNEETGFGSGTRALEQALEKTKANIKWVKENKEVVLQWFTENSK
Experimental: The CNGRC phage binds specifically to cells transfected with CD13. […] Briefly, mock transfected Molt-4 cells (“Molt-4/mock”) and cells transfected with CD13 (“Molt-4/CD13”) were incubated with CNGRC (SEQ ID NO:8) phage or with control Fd phage lacking an insert (2× 10^9 transducing units (TU) per sample). […] After extensive washing, bound phage were quantitated by infection of bacteria as described above.

[2] = target: T2, CD13/aminopeptidase N (CD13/APN), isolated from octylglucoside cell extracts (Homo sapiens (Human), UniProt P15144 2-967); experiment: affinity chromatography of Molt-4/CD13, MDA-MB-435/CD13 or HL-60 cell extracts on CNGRC-SEPHAROSE
T2 construct: The source cell lines are human; also called NGR receptor; immuno-isolated CD13
T2 sequence (P15144 2-967 R86Q limits assumed): as above
Experimental: (§1) To further characterize the interaction of CD13/APN with the NGR peptide, affinity chromatography on the CNGRC peptide was performed. The column was prepared by coupling the CNGRC peptide to SEPHAROSE (Pharmacia; Piscataway N.J.). Elution was effected with soluble CNGRC peptide. Experiments were performed using HL-60 cell extracts because they are known to express CD13/APN without other proteases that could interfere in the APN assay (Xu et al., supra (1997)). Thus, in HL-60 cell extracts, all detectable cell surface enzymatic activity is inhibitable by anti-CD13 blocking antibodies, assuring specificity. Extracts of Molt-4 and MDA-MB-435 cells transfected with CD13/APN were also characterized by using affinity chromatography, with extracts of the mock transfected counterparts used as negative controls.
(§2) Briefly, CD13 was detected by testing aliquots of each fraction for the presence of CD13 immunoreactivity in ELISA with the anti-CD13 monoclonal antibody WM15, using normal mouse IgG as a negative control. The fractions were also analyzed for CD13 enzymatic activity using AlapNA as the substrate. […] Furthermore, no CD13 activity was recovered from the CNGRC column when the extract fractionated was derived from CD13-negative cells (see FIG. 6).

[3] = target: T2, CD13/aminopeptidase N (CD13/APN), …; experiment: peptide affinity chromatography of cell extracts
Experimental: as §1, §2

| Binder | binding result [1] | binding result [2] | binding result [3] |
| --- | --- | --- | --- |
| CNGRC (also: cyclized (cyclic peptide), ring type not given here, also called NGR cyclic peptide; soluble CNGRC peptide) [CNGRC cyclic peptide (SEQ ID NO:8)] | binds | binds |  |
| CARAC (also called negative control CARAC; control peptide) [CARAC peptide (SEQ ID NO:221)] |  |  | no binding |
